Measurements from patent US10196445.

Experiments:
Assay in all cases: Fc receptor binding, method not stated
CD64 (FcγRIa) (human) = CD64 (FcγRIa) (human) (UniProt P12314)
[1] = biological target: CD32-H131 (FcγRIIa) (human) (UniProt P12318)
[2] = biological target: CD32-R131 (FcγRIIa) (human) (UniProt P12318)
[3] = biological target: CD16-V158 (FcγRIIIa) (human) (UniProt P08637)
CD32B (FcγRIIb) (human) = CD32B (FcγRIIb) (human) (UniProt P31994)
CD32B (FcγRIIb) (human), sequence (P31994 43-217 limits assumed): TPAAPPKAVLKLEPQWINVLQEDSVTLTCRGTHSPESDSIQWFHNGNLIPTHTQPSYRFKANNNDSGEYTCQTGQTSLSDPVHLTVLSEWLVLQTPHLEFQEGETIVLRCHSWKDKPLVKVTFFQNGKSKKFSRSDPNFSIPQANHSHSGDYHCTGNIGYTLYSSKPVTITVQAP

CD32-R131 (FcγRIIa) (human), sequence (P12318 34-217 H167R limits assumed): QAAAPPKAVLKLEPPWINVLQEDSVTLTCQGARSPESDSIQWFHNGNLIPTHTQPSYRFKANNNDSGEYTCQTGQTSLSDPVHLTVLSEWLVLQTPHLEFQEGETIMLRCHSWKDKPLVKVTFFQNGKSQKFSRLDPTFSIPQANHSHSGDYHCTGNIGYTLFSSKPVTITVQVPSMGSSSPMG
CD64 (FcγRIa) (human), sequence (P12314 16-288 limits assumed): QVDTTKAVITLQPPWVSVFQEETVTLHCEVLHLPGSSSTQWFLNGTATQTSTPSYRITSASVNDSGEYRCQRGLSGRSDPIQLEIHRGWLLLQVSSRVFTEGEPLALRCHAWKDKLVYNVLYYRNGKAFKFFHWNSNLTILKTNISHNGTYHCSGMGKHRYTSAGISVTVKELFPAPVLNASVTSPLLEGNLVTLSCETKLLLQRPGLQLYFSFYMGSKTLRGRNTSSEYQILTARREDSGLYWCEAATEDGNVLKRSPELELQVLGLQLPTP
CD32-H131 (FcγRIIa) (human), sequence (P12318 34-217 limits assumed): as the sequence (P12318 34-217 H167R limits assumed) above, with R134H counted along it
CD16-V158 (FcγRIIIa) (human), sequence (P08637 17-208 F176V limits assumed): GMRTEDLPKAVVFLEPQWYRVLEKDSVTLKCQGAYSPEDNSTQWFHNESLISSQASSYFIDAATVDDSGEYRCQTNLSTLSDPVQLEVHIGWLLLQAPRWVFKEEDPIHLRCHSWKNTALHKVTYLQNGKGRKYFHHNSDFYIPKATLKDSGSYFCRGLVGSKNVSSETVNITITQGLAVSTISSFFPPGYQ

| Substance | Kd (CD64 (FcγRIa) (human)) | Kd [1] | Kd [2] | Kd [3] | Kd (CD32B (FcγRIIb) (human)) |
| --- | --- | --- | --- | --- | --- |
| non-fucosylated IgG1f antibody (human IgG1, 214R/356E/358M allotype) | 0.1 nM | 560 nM | 710 nM | 11 nM | – |
| IgG1f antibody (human IgG1, 214R/356E/358M allotype) | 0.2 nM | 530 nM | 960 nM | 97 nM | – |
| GASDALIE modified IgG1f antibody (human IgG1, 214R/356E/358M allotype; G236A, S239D, A330L and I332E) | 0.6 nM | – | 100 nM | – | 890 nM |
